PMC11162469, “Discovery of RXFP2 genetic association in resistant hypertensive men and RXFP2 antagonists for the treatment of resistant hypertension” (Scientific Reports, 2024)

Molecular target: RXFP2 mAb 2H3 (rat)
Assay: SPR; Biacore S200; goat anti-rat Fc gamma immobilised on a Series S CM5 chip, purified recombinant rat anti-RXFP2 antibodies captured at 5 µg/mL; rat or human LDLa-linker protein flowed as analyte at 20, 10, 5, 2.5, 1.75 and 0 nM; 1:1 fit model

B1: rat LDLa-linker protein (ratRXFP2-LDLa-linker(20-88)) (domain or fragment)
chain: GSNMVAPLCPKGYFPCGNLTKCLPRAFHCDGVDDCGNGADEDNCGDTSGWTTIFGTVHGNVNKVTLTEE
- Kd: 582 nM
